{
  "source": "patent US20220409535A1",
  "about": "“BIOLOGICAL AGENT-EXOSOME COMPOSITIONS AND USES THEREOF” (The University of North Carolina at Chapel Hill, priority 2016, published 2022)",
  "key": {"[1]": {"tested_on": "hCMEC/D3 cells", "assay": "Flow cytometry of cell uptake of Mϕ exosomes and endocytosis markers", "type": "cell-based, human", "conditions": "for effect on uptake of Mϕ exosomes: CM-DiI labeled exosomes, 4 h; for effect on uptake of respective endocytosis marker: sucrose of transferrin, nystatin of CTB, EIPA of dextran (70 kDa)", "protocol": "Flow Cytometry of Cell Uptake. hCMEC/D3 cells were grown in 24-well plates at […] for 4-5 days to reach confluence. Exosomes were labeled by adding CM-DiI dyes (2 μg/ml, Life Technologies) to the medium before the first […] pelleting step. In the uptake mechanism studies, the cells were pretreated with endocytosis inhibitors, carbohydrates or EGTA for 0.5 h, and then co-treated with CM-DiI labeled exosomes (0.6×10^10 exosomes/ml) for 4 h. The inhibition of endocytosis markers uptake was studied similarly. The endocytosis markers used were Alexa Fluor 488-Transferrin (10 μg/ml, Life technologies) for clathrin mediated endocytosis, Alexa Fluor 488-CTB (5 μg/ml, Life technologies) for caveolae mediated endocytosis, and FITC-Dextran (70 kDa, Sigma) (10 mg/ml) for macropinocytosis. The antibody block assays were done by co-incubating exosomes with antibodies or isotope controls at 100 μg/ml for 4 h. The cells were washed trice by PBS, detached by 0.25% trypsin/EDTA, collected by centrifugation at 100 g for 10 min, fixed with 4% paraformaldehyde for 10 min, and then resuspended in 0.35 ml PBS. Viable singlets were gated based on forward scatter and side scatter. 5,000-10,000 viable singlets were recorded for each sample on Becton Dickinson LSRII (BD Biosciences) using 488 nm and 532 nm lasers. Unless otherwise noted in figure legend, data are not normalized and reported as mean fluorescence±SD of 3 replicate wells."}, "[2]": {"assay": "PK and distribution in healthy CD-1 mice", "type": "in vivo, mouse", "conditions": "jugular vein", "protocol": "Iodine Labeling. Exosomes and proteins were labeled with iodine by chloramine-T method (Yi et al., J. Controlled Release 191:34 (2014)). Briefly, exosomes or proteins were mixed with 1 mCi of Na^125I or Na^131I (Perkin Elmer) and 10 μg of chloramine-T in phosphate buffer (0.25 M, pH 7.5) for 60 s. Labeled exosomes and proteins were purified by Illustra Nap-5 columns (Life technologies) and collected in tubes pretreated with 1% BSA in PBS to prevent nonspecific adsorption. The iodine association (iodine in labeled sample/total iodine) was determined by trichloroacetic acid precipitation method (Yi et al., J. Controlled Release 191:34 (2014)). Briefly, 1 μl of purified samples was mixed with 0.5 ml of 1% BSA in PBS and 0.5 ml of 30% TCA, and then centrifuged at 5400 g for 10 min. The resulting pellet and supernatant were counted on r-counter (PerkinElmer). The iodine association was calculated as the percentage of pellet radioactivity to total radioactivity.\n(§1) Animal Procedure. Mice were anesthetized with 40% urethane (4 g/kg) by intraperitoneal injection. Iodine labeled substances (4×10^5 cpm) were injected to the right jugular vein. At each time point, blood was collected from the left carotid artery, allowed to clot and then centrifuged at 5400 g for 10 min to collect serum. The whole brain and peripheral organs were removed and weighed immediately after blood sampling. The radioactivity of serum and tissues were counted and normalized to injected dose (ID) by volume (ml) or weight (g) (% ID/ml or % ID/g). An injection check representing ID was also counted (n=3).\n(§2) PK data analysis. The noncompartmental PK parameters Vss (ml), Cl (ml/min), MRTlast and MRTinf (h) were estimated using Phoenix® WinNonlin® 6.3 (Pharsight). The Ki (slope) and Vi (y-intercept) were calculated from the linear portion of multiple-time regression analysis (Price et al., J. Pharmacol. Exper. Ther. 333:253 (2010); Patlak et al., J. Cerebral Blood Flow Metab. 3:1 (1983); Patlak et al., J. Cerebral Blood Flow Metab. 5:584 (1985)). Brain/serum ratio (Am/Cpt, ml/g) of co-injected BSA was used to correct for the vascular space or leakage (Banks et al, Brain Behav. Immun. 2010, 24:102 (2010)), and subtracted from that of tested substance to get the delta brain/serum ratio. The delta brain/serum ratio was plotted against exposure time following equation"}, "[3]": {"conditions": "Shinoda et al.; cited from earlier work"}, "[4]": {"tested_on": "ICAM-1", "assay": "ICAM-1 expression in hCMEC/D3 cells by western blot", "type": "cell-based, human", "protocol": "Protein expression was determined by western blot using β-actin as loading control."}, "[5]": {"assay": "Size of catalase exosomal formulations by DLS and NTA", "type": "physicochemical", "conditions": "DLS", "protocol": "Characterization of different exoCAT formulations by (Dynamic Light Scattering) DLS, (Atomic Force Microscopy) AFM, Nanoparticle Tracking Analysis (NTA), and Hyperspectral microscopy: The effective hydrodynamic diameter of empty exosomes, or exosomes loaded with catalase was measured by DLS using the ZetaPlus' Zeta Potential Analyzer (Brookhaven Instruments, […]., USA) equipped with a 35 mW solid state laser (658 nm laser) as described in (Bronich et al., J. Amer. Chem. Soc. 122:8339 (2000); Vinogradov et al., Colloids Surfaces B-Biointerfaces 16:291 (1999)). The size, distribution, and number of particles for various exosomal formulations were also examined by NTA. For this purpose, exoCAT formulations were prepared at concentration 0.01 mg/mL, and evaluated using NanoSight 500, Version 2.2 (Wiltshire, United Kingdom). The morphology of exoCAT aggregates was investigated by AFM. Different exoCAT formulations were prepared in 50 mM phosphate buffer, pH 7.4 at total protein 10 μg/mL. A drop of the sample was placed on a glass slide, and dried under an argon flow. The AFM imaging was operated as described earlier (Zhao et al., Nanomedicine (Lond) 6:25 (2011))."}, "[6]": {"assay": "Preservation of catalase enzymatic activity and stability of exoCAT", "type": "physicochemical", "conditions": "sonication conditions", "protocol": "Enzymatic activity of catalase loaded into exosomes: The loading efficiency for different exoCAT formulations was assessed by catalase enzymatic activity using hydrogen peroxide decomposition assay (Zhao et al., Nanomedicine (Lond) 6:25 (2011)). For this purpose, different exoCAT formulations were incubated with pronase (0.1-0.2 mg/mL) for 3 hours at 37° C. Following the incubation, the aliquots were subjected for catalytic activity assessment as described above. The same assay was used to examine the preservation of catalase enzymatic activity in exosomes against proteases degradation. Stability of catalase was expressed in the residual activity vs. initial activity of catalase."}, "[7]": {"tested_on": "PC12 cells", "assay": "Cell viability (MTT) of PC12 cells exposed to 6-OHDA", "type": "cell-based, rat", "protocol": "Cell viability assay: The protection of PC12 cell by exoCAT prepared by sonication was assessed by MTT assay. For this purpose, PC12 cells (1×10^5 cells/mL) were seeded into a 96-well plate and allowed to attach overnight. Then, the cells were exposed to 200 μM 6-OHDA and different exoCAT formulations, or catalase alone, or empty exosomes for four hours. Following the incubation, the cells were washed 3 times with ice-cold PBS, and incubated with the corresponding exoCAT formulations, or catalase alone, or empty exosomes for another 24 hours. Following the treatment, 20 μL MTT (5 mg/mL) was added into each well. After 3 hours of incubation at 37° C., the medium containing MTT was removed; and 100 μL DMSO was added into each well to dissolve the purple MTT formazan. Absorbances were read at λ=570 nm by a microplate reader, and cell viability was expressed as a percentage of viable cells in the treated groups compared to the untreated control group."}, "[8]": {"conditions": "calculated from the molecular mass of the enzyme; cited from earlier work"}, "[9]": {"tested_on": "6-OHDA-intoxicated mice", "assay": "Immunohistochemical and stereological analyses in 6-OHDA PD mouse model", "conditions": "i.n.", "procedure": "For the detection of microglia activation, tissue sections were incubated with primary monoclonal rat anti-mouse anti-CD11b antibodies (1:500 dilution), and secondary biotinylated goat anti-rat antibodies (Vector Laboratories, Burlingame, Calif., 1:200 dilution). […] In addition, levels of astrocytosis were assessed in the ventral midbrain region by fluorescent analysis of glial fibrillary acidic protein (GFAP) expression. For the GFAP staining, tissue sections were permeabilized with 0.01% Triton X-100 in TBS for 30 minutes and blocked for 1 hour with 10% normal goat serum (NGS, Vector Laboratories Inc., Burlingame, Calif.), then incubated with rabbit anti-GFAP primary polyclonal antibodies ab7260 (AbCam, Cambridge, Mass.) 1:100 dilution for 16 hours at 4° C. […] Immunoreactivity was evaluated by fluorescent analysis using confocal microscope Zeiss 510 Meta Confocal Laser Scanning Microscope (Jena, Germany), and ImageJ software (NIH, Bethesda, Mass., USA)."}, "[10]": {"assay": "Brain delivery of BDNF and Mϕ exosomes complex", "type": "in vivo, mouse", "conditions": "brain-inflamed mice, 10 min", "protocol": "as §1\nas §2, with “The delta brain/serum ratio was plotted against exposure time following equation” left out\nWe further determined if Mϕ exosomes would ferry BDNF to the brain. […]"}, "[11]": {"conditions": "Patterson et al.; cited from earlier work"}},
  "data": [
    {"molecule": "C[C@@H]1[C@H](O)[C@@H](C)/C=C/C=C/CC/C=C/C=C/C=C/C=C/C(O[C@H]2O[C@H](C)[C@@H](O)[C@H](N)[C@@H]2O)CC2O[C@](O)(CC(O)C(O)CCC(O)CC(O)CC(O)CC(=O)O[C@H]1C)CC(O)C2C(=O)O", "note": "(stereo partly drawn) [nystatin]", "values": [
      {"measurement": "effect on uptake of Mϕ exosomes", "setting": "[1]", "value": "significantly decreased the uptake of Mϕ exosomes"},
      {"measurement": "effect on uptake of respective endocytosis marker", "setting": "[1]", "value": "diminished uptake of a respective endocytosis marker"}
    ]},
    {"molecule": "CCN(c1nc(N)c(C(=O)N=C(N)N)nc1Cl)C(C)C", "note": "[EIPA, 5-(N-Ethyl-N-isopropyl) amiloride]", "values": [
      {"measurement": "effect on uptake of Mϕ exosomes", "setting": "[1]", "value": "significantly decreased the uptake of Mϕ exosomes"},
      {"measurement": "effect on uptake of respective endocytosis marker", "setting": "[1]", "value": "diminished uptake of a respective endocytosis marker"}
    ]},
    {"molecule": "OC[C@H]1O[C@@](CO)(O[C@H]2O[C@H](CO)[C@@H](O)[C@H](O)[C@H]2O)[C@@H](O)[C@@H]1O", "note": "[sucrose]", "values": [
      {"measurement": "effect on uptake of Mϕ exosomes", "setting": "[1]", "value": "significantly decreased the uptake of Mϕ exosomes"},
      {"measurement": "effect on uptake of respective endocytosis marker", "setting": "[1]", "value": "diminished uptake of a respective endocytosis marker"}
    ]},
    {"molecule": "^131I-BSA: 131I-labeled bovine serum albumin, co-injected vascular marker", "values": [
      {"measurement": "Cl", "setting": "[2]", "value": 0.0039, "unit": "mL/min"},
      {"measurement": "MRTinf", "setting": "[2]", "value": 6.10, "unit": "h"},
      {"measurement": "MRTlast", "setting": "[2]", "value": 0.94, "unit": "h"},
      {"measurement": "Vss", "setting": "[2]", "value": 1.44, "unit": "mL"},
      {"measurement": "Cl, previously published data", "setting": "[3]", "value": 0.0035, "unit": "mL/min"},
      {"measurement": "Vss, previously published data", "setting": "[3]", "value": 1.5, "unit": "mL"}
    ]},
    {"molecule": "N[C@H]1C(O)O[C@H](CO)[C@@H](O)[C@@H]1O", "note": "(stereo partly drawn) [glucosamine]", "values": [
      {"measurement": "effect on uptake of Mϕ exosomes", "setting": "[1]", "value": "inhibited the uptake at lower concentrations"},
      {"measurement": "ICAM-1 expression", "setting": "[4]", "value": "did not inhibit the expression of ICAM-1"}
    ]},
    {"molecule": "O=C(O)CN(CCOCCOCCN(CC(=O)O)CC(=O)O)CC(=O)O", "note": "[EGTA, ethylene glycol-bis(2-aminoethylether)-N, N, N′, N′-tetraacetic acid]", "values": [
      {"measurement": "effect on uptake of Mϕ exosomes", "setting": "[1]", "value": "decreased"}
    ]},
    {"molecule": "Catalase alone: Catalase from bovine liver (protein, UniProt P00432 2-527, looked up) Catalase: ADNRDPASDQMKHWKEQRAAQKPDVLTTGGGNPVGDKLNSLTVGPRGPLLVQDVVFTDEMAHFDRERIPERVVHAKGAGAFGYFEVTHDITRYSKAKVFEHIGKRTPIAVRFSTVAGESGSADTVRDPRGFAVKFYTEDGNWDLVGNNTPIFFIRDALLFPSFIHSQKRNPQTHLKDPDMVWDFWSLRPESLHQVSFLFSDRGIPDGHRHMNGYGSHTFKLVNANGEAVYCKFHYKTDQGIKNLSVEDAARLAHEDPDYGLRDLFNAIATGNYPSWTLYIQVMTFSEAEIFPFNPFDLTKVWPHGDYPLIPVGKLVLNRNPVNYFAEVEQLAFDPSNMPPGIEPSPDKMLQGRLFAYPDTHRHRLGPNYLQIPVNCPYRARVANYQRDGPMCMMDNQGGAPNYYPNSFSAPEHQPSALEHRTHFSGDVQRFNSANDDNVTQVRTFYLKVLNEEQRKRLCENIAGHLKDAQLFIQKKAVKNFSDVHPEYGSRIQALLDKYNEEKPKNAVHTYVQHGSHLSAREKANL", "values": [
      {"measurement": "Deff (nm)", "setting": "[5]", "value": 9.5, "unit": "nm"},
      {"measurement": "PdI", "setting": "[5]", "value": 0.10},
      {"measurement": "Deff (nm)", "setting": "[5]; listed as naked catalase", "value": 9.5, "unit": "nm"},
      {"measurement": "catalase enzymatic activity upon sonication", "setting": "[6]", "value": 14, "unit": "%"},
      {"measurement": "neuroprotective activity (neuronal survival, MTT)", "setting": "[7]", "value": "did not protect PC12 cells"},
      {"measurement": "theoretical diameter of a single protein globule", "setting": "[8]", "value": 10.5, "unit": "nm"},
      {"measurement": "anti-inflammatory and neuroprotective effect", "setting": "[9]", "value": "not effective in decreasing inflammation or providing neuroprotection"}
    ]},
    {"molecule": "BDNF: brain derived neurotrophic factor (protein, UniProt P23560 19-247, looked up) Neurotrophic factor BDNF …: APMKEANIRGQGGLAYPGVRTHGTLESVNGPKAGSRGLTSLADTFEHVIEELLDEDQKVRPNEENNKDADLYTSRVMLSSQVPLEPPLLFLLEEYKNYLDAANMSMRVRRHSDPARRGELSVCDSISEWVTAADKKTAVDMSGGTVTVLEKVPVSKGQLKQYFYETKCNPMGYTKEGCRGIDKRHWNSQCRTTQSYVRALTMDSKKRIGWRFIRIDTSCVCTLTIKRGR", "values": [
      {"measurement": "brain accumulation of BDNF", "setting": "[10]", "value": "the difference was not significant"},
      {"measurement": "isoelectric point", "setting": "[11]", "value": 9.99}
    ]}
  ]
}
